Measurements taken from patent US20220135649A1 (University of California, published 2022).
Ends that are not written are not given here.

What was measured:
[1] = target: T1, wild-type soluble CD40L fragment (residues 118-261) with no N-terminal KGD motif (human, UniProt P29965 118-261); test: ELISA-type: immobilized CD40L, site 2 peptide fused to GST, bound GST measured
T1 construct: also called WT CD40L; WT sCD40L; not shown: His tag from the PET28a vector (Ni-NTA purification, anti-His detection)
T1 sequence: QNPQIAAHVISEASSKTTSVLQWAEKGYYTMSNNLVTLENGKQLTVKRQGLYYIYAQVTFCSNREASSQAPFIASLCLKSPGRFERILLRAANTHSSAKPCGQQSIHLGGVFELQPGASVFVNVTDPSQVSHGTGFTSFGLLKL

[2] = target: T2, CD40 fragment (residues 21-144) fused to GST (UniProt P25942 21-144); test: ELISA-type CD40 binding (as for FIG. 11)
T2 construct: range 21-144; Made in E. coli BL21 from PGEX2T (BamHI/EcoRI), purified on glutathione-sepharose; also called CD40 fused to GST; not shown: glutathione S-transferase encoded by the PGEX2T vector
T2 sequence (P25942 21-144): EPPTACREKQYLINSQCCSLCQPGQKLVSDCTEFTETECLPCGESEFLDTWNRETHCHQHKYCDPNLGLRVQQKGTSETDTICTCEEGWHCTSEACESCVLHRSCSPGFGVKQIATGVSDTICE

[3] = target: T2, CD40 fragment (residues 21-144) fused …; test: ELISA-type: immobilized CD40 (21-144)-GST, CD40L mutant in solution

Row | Binder | binding result [2] | binding result [3] | other results
1 | QPNDGQSHVGSDNHYSASTTM (also: fused to GST, order not given here, also called peptide from site 2 of β3; not shown: glutathione S-transferase fusion partner) [site 2 peptide of integrin β3 fused to GST] |  |  | binding result [1]: binds
2 | CD40L HIGMS1 mutant H224Y (soluble fragment) (ligand, not shown: His tag from the PET28a vector (Ni-NTA purification, anti-His detection)) QNPQIAAHVISEASSKTTSVLQWAEKGYYTMSNNLVTLENGKQLTVKRQGLYYIYAQVTFCSNREASSQAPFIASLCLKSPGRFERILLRAANTHSSAKPCGQQSIYLGGVFELQPGASVFVNVTDPSQVSHGTGFTSFGLLKL | binds |  | 
3 | CD40L H224E/G226E mutant (soluble fragment) (ligand, Mutant of the soluble CD40L fragment; also called dnCD40L; CD40L decoy; not shown: His tag from the PET28a vector (Ni-NTA purification, anti-His detection)) QNPQIAAHVISEASSKTTSVLQWAEKGYYTMSNNLVTLENGKQLTVKRQGLYYIYAQVTFCSNREASSQAPFIASLCLKSPGRFERILLRAANTHSSAKPCGQQSIELEGVFELQPGASVFVNVTDPSQVSHGTGFTSFGLLKL |  | binds | 
4 | CD40L HIGMS1 mutant G226A (soluble fragment) (ligand, not shown: His tag from the PET28a vector (Ni-NTA purification, anti-His detection)) QNPQIAAHVISEASSKTTSVLQWAEKGYYTMSNNLVTLENGKQLTVKRQGLYYIYAQVTFCSNREASSQAPFIASLCLKSPGRFERILLRAANTHSSAKPCGQQSIHLAGVFELQPGASVFVNVTDPSQVSHGTGFTSFGLLKL | binds |  | 
5 | CD40L HIGMS1 mutant L258S (soluble fragment) (ligand, not shown: His tag from the PET28a vector (Ni-NTA purification, anti-His detection)) QNPQIAAHVISEASSKTTSVLQWAEKGYYTMSNNLVTLENGKQLTVKRQGLYYIYAQVTFCSNREASSQAPFIASLCLKSPGRFERILLRAANTHSSAKPCGQQSIHLGGVFELQPGASVFVNVTDPSQVSHGTGFTSFGSLKL | binds |  | 
6 | CD40L G252E mutant (soluble fragment) (ligand, Mutant of the soluble CD40L fragment; also called dnCD40L; CD40L decoy; not shown: His tag from the PET28a vector (Ni-NTA purification, anti-His detection)) QNPQIAAHVISEASSKTTSVLQWAEKGYYTMSNNLVTLENGKQLTVKRQGLYYIYAQVTFCSNREASSQAPFIASLCLKSPGRFERILLRAANTHSSAKPCGQQSIHLGGVFELQPGASVFVNVTDPSQVSHGTEFTSFGLLKL |  | binds | 

More lines, main results first:

Row | binding result [2] | binding result [3] | Binder | other results
7 |  | binds | CD40L Y170E mutant (soluble fragment) (ligand, Mutant of the soluble CD40L fragment; also called Y170 to E; dnCD40L; not shown: His tag from the PET28a vector (Ni-NTA purification, anti-His detection)) QNPQIAAHVISEASSKTTSVLQWAEKGYYTMSNNLVTLENGKQLTVKRQGLYEIYAQVTFCSNREASSQAPFIASLCLKSPGRFERILLRAANTHSSAKPCGQQSIHLGGVFELQPGASVFVNVTDPSQVSHGTGFTSFGLLKL | 
8 | binds |  | CD40L HIGMS1 mutant Q174R (soluble fragment) (ligand, not shown: His tag from the PET28a vector (Ni-NTA purification, anti-His detection)) QNPQIAAHVISEASSKTTSVLQWAEKGYYTMSNNLVTLENGKQLTVKRQGLYYIYARVTFCSNREASSQAPFIASLCLKSPGRFERILLRAANTHSSAKPCGQQSIHLGGVFELQPGASVFVNVTDPSQVSHGTGFTSFGLLKL | 
9 | binds |  | CD40L HIGMS1 mutant G227V (soluble fragment) (ligand, not shown: His tag from the PET28a vector (Ni-NTA purification, anti-His detection)) QNPQIAAHVISEASSKTTSVLQWAEKGYYTMSNNLVTLENGKQLTVKRQGLYYIYAQVTFCSNREASSQAPFIASLCLKSPGRFERILLRAANTHSSAKPCGQQSIHLGVVFELQPGASVFVNVTDPSQVSHGTGFTSFGLLKL | 
10 | binds |  | CD40L HIGMS1 mutant T176I (soluble fragment) (ligand, Printed as T1761, read as T176I; also called T1761 (so in the source); not shown: His tag from the PET28a vector (Ni-NTA purification, anti-His detection)) QNPQIAAHVISEASSKTTSVLQWAEKGYYTMSNNLVTLENGKQLTVKRQGLYYIYAQVIFCSNREASSQAPFIASLCLKSPGRFERILLRAANTHSSAKPCGQQSIHLGGVFELQPGASVFVNVTDPSQVSHGTGFTSFGLLKL | 
